Here are results for one substance from PMC9937922.

This experiment concerns the target proliferating cell nuclear antigen (PCNA) (human (endogenous in HAP1)) (UniProt P12004). The experiment can be described thus: co-IP; Dynabeads Protein A cross-linked (BS3) with α-PCNA (PC10) or α-ENO1 (ab227978); 2 mg HAP1 cytosolic cell extract, 4 °C overnight; washes with 600 mM NaCl; western blot; both directions.
Sequence of UniProt P12004 (P12004 whole entry): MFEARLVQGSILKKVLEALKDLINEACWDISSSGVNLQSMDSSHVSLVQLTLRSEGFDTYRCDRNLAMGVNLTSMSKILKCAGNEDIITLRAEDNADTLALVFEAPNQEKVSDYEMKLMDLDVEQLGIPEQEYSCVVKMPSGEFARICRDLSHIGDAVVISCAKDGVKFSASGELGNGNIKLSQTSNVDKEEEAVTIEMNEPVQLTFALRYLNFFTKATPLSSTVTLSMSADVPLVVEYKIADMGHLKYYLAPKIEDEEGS

In turn, “ENO1 F423A (from UniProt P06733 1-434) (enzyme)” had a percent reduction of the interaction against WT ENO1 of 80 to 90%.
